Literature values, collected in patent US12576131B2, “Altering inflammatory states of immune cells in vivo by modulating cellular activation states” (Fred Hutchinson Cancer Center, priority 2018, dated 2026).

Test system: IRF8 responsive genes
Conditions: mutation of the K310 residue prevents SUMO binding

B1: murine IRF8 mutant: murine IRF8 with substitution of Lysine (K) at residue 310 with Arginine (R), SEQ ID NO: 17 (protein)
chain: MCDRNGGRRLRQWLIEQIDSSMYPGLIWENDEKTMFRIPWKHAGKQDYNQEVDASIFKAWAVFKGKFKEGDKAEPATWKTRLRCALNKSPDFEEVTDRSQLDISEPYKVYRIVPEEEQKCKLGVAPAGCMSEVPEMECGRSEIEELIKEPSVDEYMGMTKRSPSPPEACRSQILPDWWVQQPSAGLPLVTGYAAYDTHHSAFSQMVISFYYGGKLVGQATTTCLEGCRLSLSQPGLPKLYGPDGLEPVCFPTADTIPSERQRQVTRKLFGHLERGVLLHSNRKGVFVKRLCQGRVFCSGNAVVCKGRPNRLERDEVVQVFDTNQFIRELQQFYATQSRLPDSRVVLCFGEEFPDTVPLRSKLILVQVEQLYARQLVEEAGKSCGAGSLMPALEEPQPDQAFRMFPDICTSHQRPFFRENQQITV
For B1, the “increase in IRF8 specific gene transcription” value is listed as 2-5 fold.
